Results: article PMC12416549 (2024)
Positions count from the first letter of the chain named. In names and notes the source's numbering stands.

B1: E33I (designed binder)
chain: MTLQELLREEALRRAEAEAFRYALELLAEKFPIQKEYLLDLAEEIESQIRSLSGVDVEDVRKFLDKEWAWVKELLAEHPAELAEVEAARAARLAELRAEVEAKVAA
B2: L74W (designed binder)
chain: B1 chain with I33E, L74W
B3: E95L (designed binder)
chain: B1 chain with I33E, E95L
B4: K35W (designed binder)
chain: B1 chain with I33E, K35W
B5: A98M (designed binder)
chain: B1 chain with I33E, A98M
B6: A80Q (designed binder)
chain: B1 chain with I33E, A80Q
B7: E46C (designed binder)
chain: B1 chain with I33E, E46C
B8: L38Y (designed binder)
chain: B1 chain with I33E, L38Y
B9: R89A (designed binder)
chain: B1 chain with I33E, R89A
B10: E46F (designed binder)
chain: B1 chain with I33E, E46F
B11: R50E (designed binder)
chain: B1 chain with I33E, R50E
B12: R97N (designed binder)
chain: B1 chain with I33E, R97N
B13: L39A (designed binder)
chain: B1 chain with I33E, L39A
B14: P32Q (designed binder)
chain: B1 chain with P32Q, I33E
B15: A42C (designed binder)
chain: B1 chain with I33E, A42C
B16: F63T (designed binder)
chain: B1 chain with I33E, F63T
B17: K72S (designed binder)
chain: B1 chain with I33E, K72S
B18: R8F (designed binder)
chain: B1 chain with R8F, I33E
B19: A69H (designed binder)
chain: B1 chain with I33E, A69H
B20: D59M (designed binder)
chain: B1 chain with I33E, D59M
B21: L26A (designed binder)
chain: B1 chain with L26A, I33E
B22: R50Y (designed binder)
chain: B1 chain with I33E, R50Y
B23: E44H (designed binder)
chain: B1 chain with I33E, E44H
B24: A88E (designed binder)
chain: B1 chain with I33E, A88E
B25: A87T (designed binder)
chain: B1 chain with I33E, A87T
B26: D56H (designed binder)
chain: B1 chain with I33E, D56H
B27: L75D (designed binder)
chain: B1 chain with I33E, L75D
B28: L96R (designed binder)
chain: B1 chain with I33E, L96R
B29: L96P (designed binder)
chain: B1 chain with I33E, L96P
B30: E5S (designed binder)
chain: B1 chain with E5S, I33E
B31: L27T (designed binder)
chain: B1 chain with L27T, I33E
B32: D59L (designed binder)
chain: B1 chain with I33E, D59L
B33: V100T (designed binder)
chain: B1 chain with I33E, V100T
B34: E36A (designed binder)
chain: B1 chain with I33E, E36A
B35: R14M (designed binder)
chain: B1 chain with R14M, I33E
B36: A15Y (designed binder)
chain: B1 chain with A15Y, I33E
B37: A23T (designed binder)
chain: B1 chain with A23T, I33E
B38: L7G (designed binder)
chain: B1 chain with L7G, I33E
B39: A11Q (designed binder)
chain: B1 chain with A11Q, I33E
B40: R50M (designed binder)
chain: B1 chain with I33E, R50M
B41: E67G (designed binder)
chain: B1 chain with I33E, E67G
B42: A90R (designed binder)
chain: B1 chain with I33E, A90R
B43: E29L (designed binder)
chain: B1 chain with E29L, I33E
B44: V57L (designed binder)
chain: B1 chain with I33E, V57L
B45: Q4N (designed binder)
chain: B1 chain with Q4N, I33E
B46: W68A (designed binder)
chain: B1 chain with I33E, W68A
B47: L27V (designed binder)
chain: B1 chain with L27V, I33E
B48: R13L (designed binder)
chain: B1 chain with R13L, I33E
B49: R89G (designed binder)
chain: B1 chain with I33E, R89G
B50: K30Y (designed binder)
chain: B1 chain with K30Y, I33E
B51: L75Y (designed binder)
chain: B1 chain with I33E, L75Y
B52: E25I (designed binder)
chain: B1 chain with E25I, I33E
B53: E86Q (designed binder)
chain: B1 chain with I33E, E86Q
B54: R8K (designed binder)
chain: B1 chain with R8K, I33E
B55: K62F (designed binder)
chain: B1 chain with I33E, K62F

Target: T1, TNFR1 (Homo sapiens, UniProt P19438)
T1 chain: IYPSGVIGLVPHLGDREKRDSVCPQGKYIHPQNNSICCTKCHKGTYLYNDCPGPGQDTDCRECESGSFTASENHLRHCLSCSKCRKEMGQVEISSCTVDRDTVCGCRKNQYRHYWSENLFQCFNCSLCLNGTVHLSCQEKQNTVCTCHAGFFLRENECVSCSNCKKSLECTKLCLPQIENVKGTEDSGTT
Assay: yeast display SC50

Binder | apparent Kd (screen) [nM]
B1 | 0.718
B2 | 0.189
B3 | 0.446
B4 | 0.593
B5 | 0.653
B6 | 0.49
B7 | 0.304
B8 | 0.79
B9 | 0.79
B10 | 0.49
B11 | 0.446
B12 | 0.539
B13 | 2.05
B14 | 0.593
B15 | 1.05
B16 | 0.869
B17 | 0.49
B18 | 0.49
B19 | 0.869
B20 | 0.539
B21 | 0.718
B22 | 0.539
B23 | 2.05
B24 | 0.49
B25 | 0.956
B26 | 1.86
B27 | 0.539
B28 | 0.956

Binder | apparent Kd (screen) [nM]
B29 | 0.49
B30 | 0.49
B31 | 0.539
B32 | 0.718
B33 | 0.49
B34 | 0.49
B35 | 0.718
B36 | 0.539
B37 | 0.539
B38 | 16.7
B39 | 0.79
B40 | 0.593
B41 | 13.8
B42 | 0.718
B43 | 0.539
B44 | 0.539
B45 | 0.405
B46 | 1.4
B47 | 1.54
B48 | 0.49
B49 | 1.05
B50 | 0.539
B51 | 0.718
B52 | 0.869
B53 | 0.869
B54 | 0.539
B55 | 0.593
